In series [1] the test system is T4 DNA polymerase (3'-5' exonuclease) (Bacteriophage T4?). As to the kind of experiment: cleavage_in_vitro. The note with it: atmospheric pressure, room temperature.
For series [2], the system named is Lambda exonuclease. As to the kind of experiment: cleavage_in_vitro. The note with it: rate at 30,000 psi, 20 C; 89 mM glycine-KOH pH 9.4, 3.3 mM MgCl2 assay buffer; reversible pressure inhibition.

The substance DNA size markers (lambda DNA) yielded an activity (bp digested in 20 min) in series [1] of 100.
Take Lambda DNA HindIII digest fragments: the activity in series [2] came to 0.1 bases/s.
